In patent publication US20260209376A1 (University of California, published 2026):
Where a chain is given by its changes, count along the chain named.

B1: ch128.1 (antibody, human IgG1, V domains shown)
VH: EVQLQQSGPELVKPGASMKISCKASGYSFTGYTMNWVKQSHGENLEWIGRINPHNGGTDYNQKFKDKAPLTVDKSSNTAYMELLSLTSGDSAVYYCARGYYYYSLDYWGQGTSVTVSS
VL: QIVLTQSPAIMSVSPGEKVTMTCSASSSIRYIHWYQQRPGTSPKRWIYDTSNLASGVPARFSGSGSGTSYSLTISSMEAEDAATYYCHQRNSYPWTFGGGTRLEIR
notes: mouse 128.1 V regions; also called chimeric antibody; parental chimeric antibody
B2: H6L7 (antibody, human IgG1, V domains shown)
VH: EVQLVQSGAEVKKPGESLKISCKGSGYSFTGYTMNWVRQMPGKGLEWMGRINPHNGGTDYNQKFKDQVTISADKSISTAYLQWSSLKASDTAMYYCARGYYYYSLDYWGQGTLVTVSS
VL: EIVLTQSPATLSLSPGERATLSCSASSSIRYIHWYQQKPGQAPRRWIYDTSNLASGTPARFSGSGSGTSYSLTISSLEPEDFAVYYCHQRNSYPWTFGQGTKVEIK
notes: humanized; also called hu128.1
B3: H8L7 (antibody, human IgG1, V domains shown)
VH: QVQLVESGGGVVQPGRSLRLSCAASGYSFTGYTMNWVRQAPGNGLEWVARINPHNGGTDYNQKFKDRFTISRDNSKNTLYLQMNSLRAEDTAVYYCARGYYYYSLDYWGQGTTVTVSS
VL: B2 VL
notes: as for B2
B4: H6L8 (antibody, human IgG1, V domains shown)
VH: B2 VH
VL: EIVLTQSPDFQSVTPKEKVTITCSASSSIRYIHWYQQRPDQSPKRWIYDTSNLASGVPSRFSGSGSGTSYSLTINSLEAEDAATYYCHQRNSYPWTFGQGTKVEIK
notes: as for B2
B5: H8L9 (antibody, human IgG1, V domains shown)
VH: B3 VH
VL: B2 VL with S69D, Y70F, S71T
notes: as for B2
B6: H6L9 (antibody, human IgG1, V domains shown)
VH: B2 VH
VL: B2 VL with S69D, Y70F, S71T
notes: as for B2
B7: H6L10 (antibody, human IgG1, V domains shown)
VH: B2 VH
VL: B4 VL with S69D, Y70F, S71T
notes: as for B2
B8: H6L11 (antibody, human IgG1, V domains shown)
VH: B2 VH
VL: B2 VL with R45L, W46L
notes: as for B2
B9: H8L1 (antibody, human IgG1, V domains shown)
VH: B3 VH
VL: B2 VL with R45L, W46L, S69D, Y70F, S71T
notes: as for B2
B10: H8L5 (antibody, human IgG1, V domains shown)
VH: B3 VH
VL: B2 VL with H88Q
notes: as for B2
B11: H6L6 (antibody, human IgG1, V domains shown)
VH: B2 VH
VL: B4 VL with H88Q
notes: as for B2
B12: H8L2 (antibody, human IgG1, V domains shown)
VH: B3 VH
VL: B2 VL with L13V, K38R, R45L, W46L, S69D, Y70F, S71T
notes: as for B2
B13: H6L5 (antibody, human IgG1, V domains shown)
VH: B2 VH
VL: B2 VL with H88Q
notes: as for B2
B14: H8L4 (antibody, human IgG1, V domains shown)
VH: B3 VH
VL: B2 VL with L13V, K38R, R45L, W46L, T57I, S69D, Y70F, S71T, Q99P, E104D
notes: as for B2
B15: H6L12 (antibody, human IgG1, V domains shown)
VH: B2 VH
VL: B4 VL with R45L, W46L
notes: as for B2
B16: H8L8 (antibody, human IgG1, V domains shown)
VH: B3 VH
VL: B4 VL
notes: as for B2
B17: H8L3 (antibody, human IgG1, V domains shown)
VH: B3 VH
VL: B4 VL with R45L, W46L, S69D, Y70F, S71T
notes: as for B2
B18: H8L10 (antibody, human IgG1, V domains shown)
VH: B3 VH
VL: B4 VL with S69D, Y70F, S71T
notes: as for B2
B19: H8L6 (antibody, human IgG1, V domains shown)
VH: B3 VH
VL: B4 VL with H88Q
notes: as for B2

Tests used:
[1] = target: T1, cynomolgus monkey (Macaca fascicularis) soluble TfR1 (sCD71) (cynomolgus monkey (Macaca fascicularis), UniProt H9EXL1 89-760 (rhesus entry)); test: ELISA, plate coated with soluble cynomolgus monkey TfR1 (Sino Biological), 2-fold antibody dilutions, AP anti-human kappa detection, A405
T1 construct: extracellular domain; also called cynomolgus monkey TfR1; cynomolgus monkey sCD71
Procedure: (§1) Immulon-H2B plates (Thermo Fisher Scientific, Inc.) were coated overnight at 4° C. with soluble 5 μg/mL TfR1 (sCD71) in 50 mM carbonate/bicarbonate buffer, pH 9.3. Human sCD71 was obtained from either Cal Tech (California Institute of Technology, Pasadena, CA, USA) or Kerafast, Inc., while cynomolgus monkey (Macaca fascicularis) sCD71 was purchased from Sino Biological, Inc. (Wayne, PA, USA). Plates were washed with PBS and blocked with 3% BSA in PBS. Serial 2-fold dilutions of antibodies (200-3.12 ng/mL) were added to the plate in duplicates and incubated overnight at 4° C. Binding was detected with an AP-conjugated goat anti-human κ antibody (MilliporeSigma) and AP substrate, p-nitrophenyl phosphate disodium (MilliporeSigma), dissolved in diethanolamine buffer (9.6% diethanolamine (v/v), 0.24 mM MgCl₂ in water, pH 9.8). Plates were read at absorbance 405 nm using a FilterMax F5 multi-mode microplate reader (Molecular Devices, Sunnyvale, CA, USA).

[2] = target: T2, human TfR1 on the cell surface (KMS-11 or MM.1S human MM cells) (human, UniProt P02786 1-760); test: flow cytometry on MM.1S cells, 2 ug antibody, PE anti-human kappa detection
T2 construct: whole, on cells; also called human cells expressing the TfR1; CD71
Procedure: (§2) KMS-11 cells (Namba et al., In Vitro Cell. Dev. Biol. 25(8):723-729 (1989)), a kind gift from Dr. Lawrence Boise (Emory University, Atlanta, GA, USA), and MM.1S cells (Greenstein et al., Exp. Hematol., 31(4):271-282 (2003)), purchased from the American Type Culture Collection (ATCC, Manassas, VA, USA; ATCC® CRL-2974T”) human MM cells were incubated with 2 μg of humanized antibodies or the control antibodies (ch128.1 as a positive control or a negative isotype control IgG1) for 2 hours on ice. Binding was detected using a PE-conjugated anti-human κ antibody. Samples were analyzed on an LSRII analytical flow cytometer (BD Biosciences, San Jose, CA, USA) and 10,000 events were collected. Histograms were created using the […] Version 3 (De Novo Software, Glendale, CA, USA).

[3] = target: T3, soluble human TfR1 (sCD71) (human, UniProt P02786 89-760); test: ELISA, plate coated with soluble human TfR1 (Kerafast), 2-fold antibody dilutions, AP anti-human kappa detection, A405
T3 construct: extracellular domain; Two sources (Cal Tech, Kerafast) are kept as one molecule; also called Human sCD71; transferrin receptor 1
Procedure: as §1

[4] = target: T3, soluble human TfR1 (sCD71); test: ELISA, soluble human TfR1; semi-quantitative grade
[5] = target: T2, human TfR1 on the cell surface (KMS-11 …); test: flow cytometry on KMS-11 cells; semi-quantitative grade
Procedure: as §2

[6] = target: TfR1 (antigen; form in the assay not stated) (human, UniProt P02786 89-760, limits assumed); test: assay not named in the sentence (ELISA and flow cytometry per paragraph 218)
Chain of TfR1 (antigen; form in the assay not stated) (P02786 89-760 limits assumed): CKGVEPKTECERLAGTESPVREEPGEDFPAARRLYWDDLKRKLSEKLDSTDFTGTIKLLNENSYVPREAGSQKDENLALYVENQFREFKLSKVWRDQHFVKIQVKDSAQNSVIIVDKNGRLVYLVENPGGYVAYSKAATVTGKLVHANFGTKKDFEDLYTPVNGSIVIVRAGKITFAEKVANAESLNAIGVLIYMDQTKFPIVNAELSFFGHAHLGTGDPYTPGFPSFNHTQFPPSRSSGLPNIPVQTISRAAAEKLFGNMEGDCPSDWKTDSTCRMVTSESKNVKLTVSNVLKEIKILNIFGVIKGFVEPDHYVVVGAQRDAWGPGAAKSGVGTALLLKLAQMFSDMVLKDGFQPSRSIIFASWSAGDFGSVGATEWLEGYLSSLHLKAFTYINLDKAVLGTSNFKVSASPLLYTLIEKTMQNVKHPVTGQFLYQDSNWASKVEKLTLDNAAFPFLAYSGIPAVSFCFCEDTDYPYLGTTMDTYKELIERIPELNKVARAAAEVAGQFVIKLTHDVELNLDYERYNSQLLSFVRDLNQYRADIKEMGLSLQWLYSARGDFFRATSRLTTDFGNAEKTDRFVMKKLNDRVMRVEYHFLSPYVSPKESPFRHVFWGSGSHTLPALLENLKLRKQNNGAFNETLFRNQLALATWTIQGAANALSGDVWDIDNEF

T3 sequence (P02786 89-760): as the sequence (P02786 89-760 limits assumed) above
T2 sequence (P02786 whole entry): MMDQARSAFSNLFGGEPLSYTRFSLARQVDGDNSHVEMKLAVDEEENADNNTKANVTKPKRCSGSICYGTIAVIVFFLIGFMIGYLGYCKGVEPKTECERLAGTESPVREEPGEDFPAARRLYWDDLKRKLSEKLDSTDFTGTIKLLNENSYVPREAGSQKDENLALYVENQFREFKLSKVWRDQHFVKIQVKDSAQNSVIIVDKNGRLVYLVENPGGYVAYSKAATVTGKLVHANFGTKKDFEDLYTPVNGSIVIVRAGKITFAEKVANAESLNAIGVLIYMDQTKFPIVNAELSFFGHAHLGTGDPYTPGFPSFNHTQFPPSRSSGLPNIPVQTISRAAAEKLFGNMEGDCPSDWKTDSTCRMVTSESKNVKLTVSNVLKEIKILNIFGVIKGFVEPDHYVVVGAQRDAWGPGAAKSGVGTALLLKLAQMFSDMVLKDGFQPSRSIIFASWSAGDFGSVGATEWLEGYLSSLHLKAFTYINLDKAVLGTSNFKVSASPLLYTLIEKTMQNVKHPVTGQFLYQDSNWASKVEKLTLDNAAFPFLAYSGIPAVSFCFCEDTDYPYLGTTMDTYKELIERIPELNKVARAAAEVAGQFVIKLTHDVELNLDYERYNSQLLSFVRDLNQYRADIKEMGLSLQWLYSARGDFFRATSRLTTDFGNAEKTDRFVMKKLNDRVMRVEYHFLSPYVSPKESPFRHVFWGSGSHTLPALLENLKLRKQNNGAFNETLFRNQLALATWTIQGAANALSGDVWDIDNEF
T1 sequence (chain, as listed by the source): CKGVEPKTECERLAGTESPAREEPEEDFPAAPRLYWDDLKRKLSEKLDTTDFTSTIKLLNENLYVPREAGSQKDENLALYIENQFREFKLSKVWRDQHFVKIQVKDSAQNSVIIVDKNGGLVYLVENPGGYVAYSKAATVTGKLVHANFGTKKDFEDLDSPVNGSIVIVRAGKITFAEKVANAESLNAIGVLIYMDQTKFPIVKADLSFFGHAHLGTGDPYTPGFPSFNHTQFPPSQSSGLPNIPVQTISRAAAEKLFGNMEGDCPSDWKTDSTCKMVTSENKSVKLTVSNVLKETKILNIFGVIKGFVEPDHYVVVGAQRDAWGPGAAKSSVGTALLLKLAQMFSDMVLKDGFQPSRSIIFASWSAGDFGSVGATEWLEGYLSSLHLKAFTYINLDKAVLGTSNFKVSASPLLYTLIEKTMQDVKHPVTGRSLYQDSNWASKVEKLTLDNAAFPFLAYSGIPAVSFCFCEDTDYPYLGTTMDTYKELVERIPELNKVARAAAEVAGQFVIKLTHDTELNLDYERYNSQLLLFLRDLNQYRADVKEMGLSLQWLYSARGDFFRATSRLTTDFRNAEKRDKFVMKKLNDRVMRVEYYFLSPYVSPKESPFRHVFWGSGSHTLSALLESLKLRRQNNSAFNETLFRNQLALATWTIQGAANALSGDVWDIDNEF

Binder | binding result [4] | binding result [5] | further results
B1 |  |  | EC50 (read off the curve) [1]: ~0.03 µg/mL; binding result [2]: binds
B2 |  |  | binding result [3]: binds; EC50 (read off the curve) [1]: ~0.03 µg/mL; binding result [2]: binds
B3 | binds | binds | 
B4 | binds | binds | 
B5 |  |  | binding result [3]: binds; EC50 (read off the curve) [1]: ~0.04 µg/mL; binding result [2]: binds
B6 |  |  | binding result [3]: binds; EC50 (read off the curve) [1]: ~0.03 µg/mL; binding result [2]: binds
B7 | binds | binds | 
B8 | binds | binds | 
B9 |  |  | binding result [6]: no binding
B10 | binds | binds | 
B11 | binds | binds | 
B12 |  |  | binding result [6]: no binding
B13 | binds | binds | 
B14 |  |  | binding result [6]: no binding
B15 | binds | binds | 
B16 | binds | binds | 
B17 |  |  | binding result [6]: no binding
B18 |  |  | binding result [3]: binds; EC50 (read off the curve) [1]: ~0.04 µg/mL; binding result [2]: binds
B19 | binds | binds | 
